In the nanobody polyreactivity screen of Harvey et al. (2022):

Test: yeast display, Sf9 membrane polyspecificity reagent, FACS + sequencing; frameworks hold sequencing errors
Outline: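 Sorting gates, low and high (top ~1%), were placed on anti-HA fluorescence to track expression and on streptavidin fluorescence to track reagent binding. A clone's polyreactivity label is taken from the gate it came out of. The reagent was 10% biotinylated, detergent-solubilized Sf9 membrane, applied for 1 hour at 4 °C to galactose-induced yeast display cells.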
For “QVQLVESGGGLVQAGGSLRLSCAASGFTFTGYAMGWYRQAPGKERELVAAISQSGGSTYADSVKGRFTISRDNAKNTVYLQMNSLKPEDTAVYYCAAVWFLLTEYDYWGQGTQVTVSS”, the “polyreactivity (PSR sort gate)” value was “low polyreactivity”.
In the case of “QVQLVESGGGLVQAGGSLRLSCAASGFTFTGYAMGWYRQAPGKERELVAAISQSGGSTYADSVKGRFTISRDNAKNTVYLQMNSLKPEDTAVYYCNAATHGPFDYWGQGTQVTVSS”, the “polyreactivity (PSR sort gate)” value was “low polyreactivity”.
In the case of “QVQLVESGGGLVQAGGSLRLSCAASGFTFTKNAMGWYRQAPGKERELVAAISRGGRTYYADSVKGRFTISRDNAKNTVYLQMNSLKPEDTADYYCAKGYASQILVAPRSQYYYWGQGTQVTVSS”, the “polyreactivity (PSR sort gate)” value was “high polyreactivity”.
In the case of “QVQLVESGGGLVQAGGSLRLSCAASGFTFTKYDMGWYRQAPGKERELVAVITWSGGSTYYADSVKGRFTISRDNAKNTVYLQMNSLKPEDTAVYYCNDEAPRYTYGRMDYWGQGTQVTVSS”, the “polyreactivity (PSR sort gate)” value was “low polyreactivity”.
With “QVQLVESGGGLVQAGGSLRLSCAASGFTFTNYAMGWYRQAPGKERELVAAINSSGSTNYADSVKGRFTISRDNAKNTVYLQMNSLKPEDTAVYYCAVDYSYWVHGFWDDYDYWGQGTQVTVSS” the “polyreactivity (PSR sort gate)” value was “low polyreactivity”.
In the case of “QVQLVESGGGLVQAGGSLRLSCAASGFTFTPNAMGRYRQAPGKERELVAVISYSGGSTYYADSVKGRFTISRDNAKNTVYLQMNSLKPEDTAVYYCAKRTYSSKYFGFEYWGQGTQVTVSS”, the “polyreactivity (PSR sort gate)” value was “high polyreactivity”.
With “QVQLVESGGGLVQAGGSLRLSCAASGFTFTQYAMGWYGQAPGKEREFVAAITASGGSTYYADSVKGRFTISRDNAKNTVYLQMNSLKPEDTAVYYCAAKGRPDGKYDYWGQGTQVTVSS” the “polyreactivity (PSR sort gate)” value was “high polyreactivity”.
For “QVQLVESGGGLVQAGGSLRLSCAASGFTFTRNAMGWYRQAPGKERELVAAITSSGGRTYYADSVKGRFTISRDNAKNTVYLQMNSLKPEDTAVYYCAVYPRYSLPARDYDYWGQGTQVTVSS”, the “polyreactivity (PSR sort gate)” value was “high polyreactivity”.
In the case of “QVQLVESGGGLVQAGGSLRLSCAASGFTFTRYAMGWYRQAPGKERELVADITRSGGTTYYADSVKGRFTISRDNAKNTVYLQMNSLKPEDTAVYYCAADTYSHGRYYRMDYWGQGTQVTVSS”, the “polyreactivity (PSR sort gate)” value was “high polyreactivity”.
For “QVQLVESGGGLVQAGGSLRLSCAASGFTFTSNAMGWYRQAPGKERELVAAITSSGGITYYADSVKGRFTISRDNAKNTVYLQMNSLKPEDTAVYYCAASISSYNSPGYGYWGQGTQVTVSS”, the “polyreactivity (PSR sort gate)” value was “low polyreactivity”.
For “QVQLVESGGGLVQAGGSLRLSCAASGFTFTSNAMGWYRQAPGKERELVAVISTRGGSTYYADSVKGRFTISRDNAKNTVYLQMNSLKPEDTAVYYCAARQIPNSVLVHYGYWGLGTQVTVSS”, the “polyreactivity (PSR sort gate)” value was “high polyreactivity”.
For “QVQLVESGGGLVQAGGSLRLSCAASGFTFTSYTMGWYRQAPGKERELVAVISWSGGGTYYADSVKGRFTISRDNAKNTVYLQMNSLKPEDTAVYYCNKAPTNLFGGRYDYWGQGTQVTVSS”, the “polyreactivity (PSR sort gate)” value was “low polyreactivity”.
In the case of “QVQLVESGGGLVQAGGSLRLSCAASGFTFTTYVMGWYRQAPGKERELVAAISRRGTSTRYADSVKGRFTISRDNAKNTVYLQMNSLKPEDTAVYYCAADRPYSIVPYDYWGQGTQVTVSS”, the “polyreactivity (PSR sort gate)” value was “high polyreactivity”.
In the case of “QVQLVESGGGLVQAGGSLRLSCAASGFTFTVYAMGWYRQAPGKERELVAVITSGDGTYYADSVKGRFTISRDNAKNTVYLQMHSLKPEDTAVYYCNARRYSSLRYRFAYDYWGQGTQVTESS”, the “polyreactivity (PSR sort gate)” value was “low polyreactivity”.
For “QVQLVESGGGLVQAGGSLRLSCAASGFTFTWYAMGWYRQAPGKERELVASISRSGGSTYYADSVKGRFTISRDNAKNTVYLQMNSLKPEDTAVYYCAAVSRTRSYDYWGQGTQVTVSS”, the “polyreactivity (PSR sort gate)” value was “high polyreactivity”.
In the case of “QVQLVESGGGLVQAGGSLRLSCAASGFTFTYNDMGWYIQAPGKEREFVAAISSTGGSTYYADSVKGRFTISRDNAKNTVYLQMNSLKAEDTAVYYCAAEDSWYWDAWFDYWGQGTQVTVSS”, the “polyreactivity (PSR sort gate)” value was “low polyreactivity”.
In the case of “QVQLVESGGGLVQAGGSLRLSCAASGFTFTYNDMGWYRQAPGKEREFVAAISSTGGSTYYADSVKGRFTISRDNAKNTVYLQMNSLKPEDTAVYYCAAEDSWYWDAWFDYWGQGTQVTVSS”, the “polyreactivity (PSR sort gate)” value was “low polyreactivity”.
